Assay [1] concerns the target T1, MBP-IL-15 fusion protein (recombinant human IL-15 fused to maltose-binding protein) (human, UniProt P40933 49-162).
T1 construct: Expressed in E. coli TG1 and purified on amylose resin; also called recombinant human IL-15 antigen
Kind of assay: competitive inhibition ELISA; Fab-pIII supernatant pre-incubated with soluble antigen, then on coated antigen; Kd from IC50 (Klotz plot). A general note: An ELISA detects its analyte on a solid surface through an enzyme-linked reagent.

Assay [2] has as its target T2, recombinant human TNF-alpha (human, UniProt P01375 77-233).
T2 construct: Bought protein; also called TNF-α; tumor necrosis factor-alpha
Described as above.

Assay [3] concerns the target T1, MBP-IL-15 fusion protein (recombinant …). The assay can be described thus: ELISA (Fig. 3a), Fab-pIII supernatant on coated antigen.

The source of these data is patent publication KR20110049766A (dated 2011).

T1 sequence (P40933 49-162 limits assumed): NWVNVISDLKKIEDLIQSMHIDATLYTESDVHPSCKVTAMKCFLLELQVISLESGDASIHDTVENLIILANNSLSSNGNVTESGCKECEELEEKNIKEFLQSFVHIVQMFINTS
T2 sequence (P01375 77-233 limits assumed): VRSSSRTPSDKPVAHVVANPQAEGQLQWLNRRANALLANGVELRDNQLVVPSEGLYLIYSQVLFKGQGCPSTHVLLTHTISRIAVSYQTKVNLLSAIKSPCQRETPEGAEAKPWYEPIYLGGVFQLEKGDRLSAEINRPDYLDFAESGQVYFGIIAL

B1: anti-IL-15 Fab clone 4H10 (Fab, V domains shown)
VH: EVQLVQSGGGLVEPGGSLRLSCAASGLSISDAWMHWVRQVPGKGLEWVGLITNKTGGGTIIYAAPVKGRFTISRDDSKNTLYLQMNSLKTEDTAMYYCVTTYDQGYWGQGTMVTVSS
VL: ELVLTQSPSSLSASVGDRVTITCRASQSISRYLNWYQQKPGKAPKLLIYGASRLESGVPSRFSGSGSGTDFTLTISSLQPEDFATYYCQQSDSVPVTFGQGTRLEIKR
notes: Tested as a soluble Fab-pIII fusion molecule in E. coli culture supernatant (human Fd = VH+CH1 fused to phage pIII, human kappa light chain); Only the variable domains are tied to the clone; also called 3E3; 4H10 (3E3)
As to B1, the Kd (commonly the concentration at which binding is half-saturated) in assay [1] was 100 nM.

B2: anti-IL-15 Fab clone 1H3 (Fab, V domains shown)
VH: EVQLVQSGGGLVEPGGSLRLSCAASGLSISDAWMHWVRQVPGKGLEWVGLITNKTGGGTIIYAAPVKGRFTISRDDSKNTLYLQMNSLKTEDTAMYYCVTTYDQGYWGQGTMVTVSS
VL: ELVLTQSPGTLSLSPGERATLSCRASQSIFNYVAWYQQKPGQAPRLLIYDASNRATGIPARFSGSGSGTDFTLTISSLEPEDFAVYYCQQRSKWPPTWTFGQGTRVDIKR
notes: Tested as a soluble Fab-pIII fusion molecule in E. coli culture supernatant; only the variable domains are tied to the clone
As for B2, the Kd in assay [1] is 700 nM.

B3: anti-TNF-α Fab clone TNFa#1 (Fab, V domains shown)
VH: QVQLLQSGGGLVKPGGSLRLSCVASGFTFSSYWMSWVRQAPGKGLEWIGEINHSGSTSYNPSLKSRVTISIDTSKNQFSLKLNSVATADTAVYYCARLGWTMVRGVKYYYGMDVWGQGTMVTVSS
VL: ELVLTQSPSSLSASVGDRVTITCRASQSISRYLNWYQQKPGKAPKLLIYGASRLESGVPSRFSGSGSGTDFTLTISSLQPEDFATYYCQQSDSVPVTFGQGTRLEIKR
notes: Tested as a soluble Fab-pIII fusion molecule in E. coli culture supernatant; only the variable domains are tied to the clone; also called TNFα#1; #4
In the case of B3, the dissociation constant Kd in assay [2] came out at 1000 nM.

B4: anti-IL-15 Fab clone 8C5 (Fab, V domains shown)
VH: QVQLLQSGPGLVKPSQTLSLTCAISGDSVSSNSAAWNWIRQSPSRGLEWLGRTYYRSKWYNDYAVSVKSRITINPDTSKNQFSLQLNSVTPEDTAVYYCASHKDPGSSWYRQPFDYWGQGTMVTVS
VL: ELVLTQSPSSLSASVGDRVTITCRASQSISRYLNWYQQKPGKAPKLLIYGASRLESGVPSRFSGSGSGTDFTLTISSLQPEDFATYYCQQSDSVPVTFGQGTRLEIKR
notes: as for B2
Consider B4, for which the binding result in assay [3] is “binds”.

B5: anti-IL-15 Fab clone 3C1 (Fab, V domains shown)
VH: EVQLVQSGGGLVEPGGSLRLSCAASGLSISDAWMHWVRQVPGKGLEWVGLITNKTGGGTIIYAAPVKGRFTISRDDSKNTLYLQMNSLKTEDTAMYYCVTTYDQGYWGQGTMVTVSS
VL: DIVMTQSPSSLSASVGDRVPITCRASQGIRNDLGWYQQKPGKAPKLLIYAASSLQSGVPSRFSGSGSGTDFTLTISSLQPEDFATYYCLQDYNYPWTFGQGTQVEIKR
notes: Tested as a soluble Fab-pIII fusion molecule in E. coli culture supernatant; only the variable domains are tied to the clone; also called 4H7; 3C1 (4H7)
B5: the binding result in assay [3] is on record as “binds”.

B6: anti-TNF-α Fab clone TNFa#2 (Fab, V domains shown)
VH: EVQLVQSGGGVVQPGRSLRLSCAASGFSFGDYAMHWVRQAPGKGLEWVSGISWNSRIIGYADSVKGRFTISRDKAKNSLYLQMSSLRTEDTAVYYCARMGGDSSGYYSEPYYYFDYWGQGTLVTVSS
VL: ELVLTQSPSSLSASVGDRVTITCRASQSISRYLNWYQQKPGKAPKLLIYGASRLESGVPSRFSGSGSGTDFTLTISSLQPEDFATYYCQQSDSVPVTFGQGTRLEIKR
notes: Tested as a soluble Fab-pIII fusion molecule in E. coli culture supernatant; only the variable domains are tied to the clone; also called TNFα#2; #5
For B6, the Kd in assay [2] came out at 200 nM.
